The record followed here is PMC6155056 (Science Advances, 2018).

Common to all, as to experiment: cryo-EM structure
For test [1], the target named is T1, CVA10 mature virion (strain CVA10-FJ-01) (Coxsackievirus A10, strain CVA10-FJ-01 …, strain).
T1 chain 1: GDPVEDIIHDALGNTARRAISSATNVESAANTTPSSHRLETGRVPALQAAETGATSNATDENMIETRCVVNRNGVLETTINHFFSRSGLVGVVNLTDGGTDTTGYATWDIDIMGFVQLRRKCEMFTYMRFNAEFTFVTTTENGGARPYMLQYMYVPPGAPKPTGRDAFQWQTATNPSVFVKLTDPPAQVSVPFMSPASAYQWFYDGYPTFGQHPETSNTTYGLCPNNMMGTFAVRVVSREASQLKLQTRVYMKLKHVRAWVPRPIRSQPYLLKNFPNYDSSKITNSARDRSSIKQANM
T1 chain 2: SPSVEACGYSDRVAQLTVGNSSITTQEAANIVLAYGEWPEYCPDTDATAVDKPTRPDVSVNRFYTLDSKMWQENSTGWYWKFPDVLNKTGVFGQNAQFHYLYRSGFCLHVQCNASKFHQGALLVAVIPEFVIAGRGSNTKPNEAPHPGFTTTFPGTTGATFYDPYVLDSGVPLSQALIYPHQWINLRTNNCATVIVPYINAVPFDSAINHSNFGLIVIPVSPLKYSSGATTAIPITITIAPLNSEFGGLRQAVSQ
T1 chain 3: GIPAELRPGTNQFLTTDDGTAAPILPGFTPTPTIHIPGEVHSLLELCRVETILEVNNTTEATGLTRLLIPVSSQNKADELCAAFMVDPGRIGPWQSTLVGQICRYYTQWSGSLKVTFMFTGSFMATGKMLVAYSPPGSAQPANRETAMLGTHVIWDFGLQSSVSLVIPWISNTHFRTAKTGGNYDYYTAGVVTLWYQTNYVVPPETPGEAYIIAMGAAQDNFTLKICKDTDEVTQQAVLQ
T1 chain 4: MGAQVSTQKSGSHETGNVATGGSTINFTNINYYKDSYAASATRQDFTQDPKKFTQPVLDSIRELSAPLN

Test [2] concerns the target T2, CVA10 capsid protein VP1 (strain CVA10-FJ-01) (Coxsackievirus A10, strain CVA10-FJ-01 …, strain).
T2 chain: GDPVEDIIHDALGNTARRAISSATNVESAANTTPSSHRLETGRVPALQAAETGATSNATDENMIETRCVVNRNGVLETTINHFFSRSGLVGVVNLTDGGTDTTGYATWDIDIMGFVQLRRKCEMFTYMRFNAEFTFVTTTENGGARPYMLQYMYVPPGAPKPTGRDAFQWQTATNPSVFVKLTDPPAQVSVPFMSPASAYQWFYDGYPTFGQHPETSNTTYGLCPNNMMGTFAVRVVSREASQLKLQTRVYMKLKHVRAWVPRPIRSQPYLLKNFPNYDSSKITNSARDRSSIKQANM

For test [3], the target named is T3, CVA10 capsid protein VP3 (strain CVA10-FJ-01) (Coxsackievirus A10, strain CVA10-FJ-01 …, strain).
T3 chain: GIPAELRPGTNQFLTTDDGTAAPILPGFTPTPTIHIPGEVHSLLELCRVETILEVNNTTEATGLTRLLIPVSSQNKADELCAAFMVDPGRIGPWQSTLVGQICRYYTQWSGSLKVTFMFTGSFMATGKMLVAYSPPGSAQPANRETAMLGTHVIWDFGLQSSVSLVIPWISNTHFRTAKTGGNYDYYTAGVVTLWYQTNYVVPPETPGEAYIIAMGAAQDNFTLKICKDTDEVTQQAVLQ

The target in test [4] is T4, CVA10 capsid protein VP2 (strain CVA10-FJ-01) (Coxsackievirus A10, strain CVA10-FJ-01 …, strain).
T4 chain: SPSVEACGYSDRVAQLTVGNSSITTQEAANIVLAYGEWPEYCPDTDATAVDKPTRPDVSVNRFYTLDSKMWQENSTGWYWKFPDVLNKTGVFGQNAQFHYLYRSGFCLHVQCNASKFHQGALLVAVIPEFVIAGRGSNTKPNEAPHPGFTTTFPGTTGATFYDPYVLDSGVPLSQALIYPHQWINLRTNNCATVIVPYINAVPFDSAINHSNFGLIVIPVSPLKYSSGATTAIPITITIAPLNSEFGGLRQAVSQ

Test [5] deals with T5, CVA10 A-particle (strain CVA10-FJ-01) (Coxsackievirus A10, strain CVA10-FJ-01 …, strain).
T5 chain 1: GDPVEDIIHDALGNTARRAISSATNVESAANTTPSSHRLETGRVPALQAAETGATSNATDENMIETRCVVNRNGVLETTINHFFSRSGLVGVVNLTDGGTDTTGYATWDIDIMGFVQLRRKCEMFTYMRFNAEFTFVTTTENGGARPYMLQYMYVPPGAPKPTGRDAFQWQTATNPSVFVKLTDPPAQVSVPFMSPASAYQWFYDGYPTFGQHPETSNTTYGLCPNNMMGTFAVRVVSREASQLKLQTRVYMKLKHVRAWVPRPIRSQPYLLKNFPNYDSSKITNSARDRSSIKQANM
T5 chain 2: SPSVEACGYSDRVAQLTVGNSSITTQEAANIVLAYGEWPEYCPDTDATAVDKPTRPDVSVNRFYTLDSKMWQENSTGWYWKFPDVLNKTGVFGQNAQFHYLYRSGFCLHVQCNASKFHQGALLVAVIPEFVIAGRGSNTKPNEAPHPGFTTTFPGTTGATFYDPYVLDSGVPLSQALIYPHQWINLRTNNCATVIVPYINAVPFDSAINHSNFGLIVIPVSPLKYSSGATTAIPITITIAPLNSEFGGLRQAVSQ
T5 chain 3: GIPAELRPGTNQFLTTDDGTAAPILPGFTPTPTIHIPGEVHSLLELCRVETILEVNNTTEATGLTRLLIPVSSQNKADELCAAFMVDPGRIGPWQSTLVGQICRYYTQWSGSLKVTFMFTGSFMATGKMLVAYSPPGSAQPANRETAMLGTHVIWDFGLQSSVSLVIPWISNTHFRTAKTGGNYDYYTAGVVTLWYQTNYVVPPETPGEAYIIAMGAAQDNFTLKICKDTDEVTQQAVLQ

For test [6], the target named is T6, CVA10 procapsid (strain CVA10-FJ-01) (Coxsackievirus A10, strain CVA10-FJ-01 …, strain).
T6 chain 1: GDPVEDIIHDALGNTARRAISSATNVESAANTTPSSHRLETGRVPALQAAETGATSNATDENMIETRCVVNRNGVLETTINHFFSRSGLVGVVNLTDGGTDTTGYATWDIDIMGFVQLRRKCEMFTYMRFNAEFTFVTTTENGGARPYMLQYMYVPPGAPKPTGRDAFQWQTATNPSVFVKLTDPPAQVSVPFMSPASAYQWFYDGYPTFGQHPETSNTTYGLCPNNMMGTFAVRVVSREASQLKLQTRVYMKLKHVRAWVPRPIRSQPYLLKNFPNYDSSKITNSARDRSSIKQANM
T6 chain 2: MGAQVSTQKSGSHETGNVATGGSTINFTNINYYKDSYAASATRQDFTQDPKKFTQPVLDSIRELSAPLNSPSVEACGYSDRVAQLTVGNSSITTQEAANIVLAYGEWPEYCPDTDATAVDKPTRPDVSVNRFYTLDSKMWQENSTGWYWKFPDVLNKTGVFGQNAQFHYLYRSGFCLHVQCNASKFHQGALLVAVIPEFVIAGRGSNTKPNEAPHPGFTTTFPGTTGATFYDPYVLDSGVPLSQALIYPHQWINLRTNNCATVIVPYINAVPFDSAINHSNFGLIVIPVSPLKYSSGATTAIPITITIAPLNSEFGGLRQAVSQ
T6 chain 3: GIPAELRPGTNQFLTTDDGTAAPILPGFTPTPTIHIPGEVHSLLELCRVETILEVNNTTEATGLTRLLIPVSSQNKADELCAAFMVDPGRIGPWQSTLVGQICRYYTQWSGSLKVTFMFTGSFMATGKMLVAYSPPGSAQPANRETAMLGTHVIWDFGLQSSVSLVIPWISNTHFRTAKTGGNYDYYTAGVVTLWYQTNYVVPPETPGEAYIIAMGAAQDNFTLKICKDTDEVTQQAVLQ

B1: Fab 2G8 (Fab, V domains shown)
VH: EVQLQQSGPDLVKTGASVRVSCRASGYSFTSYYIHWVRLNHGKSLEWIGYINCYNGDITYNQKFKGKASFTLDTSSSTAYMEFNRLTSEDSAVYYCTRERYGTPHYHFDVWGAGP
VL: DVLMTQTPLSLPVSLGHQASISCRSSQSIVHSNGNTYLEWYLQKPGQSPKLLIYTVSNRFSGVPDRFSGSGSGTDFTLRITSVEAEDLGVYYCFQGSHIPYTFGGGTKLEIK
In the case of B1, the “stoichiometry N” value in test [1], in test [5] and in test [6] was 60 copies per particle in each case. For the same molecule, the binding result in test [2], in test [3] and in test [4] was “binds” each time.
